Read-outs that look alike come from different tables or passages of the source.

B1: mouse PDGF-BB (ligand, UniProt P31240 82-190, looked up)
chain: SLGSLAAAEPAVIAECKTRTEVFQISRNLIDRTNANFLVWPPCVEVQRCSGCCNNRNVQCRASQVQMRPVQVRKIEIVRKKPIFKKATVTLEDHLACKCETIVTPRPVT
B2: H4H13145P (antibody, human IgG4 S228P, kappa, V domains shown)
VH: QVQLVQSGTEVKKPGASVKVSCKASGYTYGAYAISWVRQAPGQGLEWMGWISAYNGNTNYAQKFQDRVTMTTDTSTNTAYMELRGLKSDDTAVYFCARAWNSFDYWGQGTLVTVSS
VL: not shown
notes: also called REGN13335; anti-PDGF-B antibody 1
B3: H4H13145P (antibody, human IgG4 S228P, kappa, V domains shown)
VH: B2 VH
VL: not shown
notes: also called REGN13335
B4: Sino Biologics cynomolgus PDGF-BB Fc tag (Fc fusion, cynomolgus monkey, not shown: a dimerising Fc or GST)
chain: SLGSLTVAEPAMIAECKTRTEVFEISRRLIDRTNANFLVWPPCVEVQRCSGCCNNRNVQCRPTQVQLRPVQVRKIEIVRKKPIFKKATVTLEDHLACKCETVAAARPVT
B5: cynomolgus monkey (Macaca fascicularis) PDGF-BB (ligand)
chain: B4 chain
B6: H4H13132P (antibody, human IgG4 S228P, kappa, V domains shown)
VH: QVQLVQSGAEVKKPGSSVKVSCKASGGTFSSYAISWVRQAPGQGLEWMGGIIPIFGTANYAQKFQGRVTITTDESTSTAYMELSSLRSEDTAVYYCAREGYGDYYFGMDVWGQGTTVTVSS
VL: not shown
notes: also called REGN15171; anti-PDGF-B antibody 2
B7: H4H13132P (antibody, human IgG4 S228P, kappa, V domains shown)
VH: B6 VH
VL: not shown
notes: also called REGN15171

The target in experiment [1] is T1, human PDGFRβ on HEK293/SRE-luc/hPDGFRβ cells (human, UniProt P09619 33-1106). As to the kind of experiment: cell-based or functional assay.
The target in experiment [2] is T1, human PDGFRβ on HEK293/SRE-luc/hPDGFRβ …. As to the kind of experiment: cell-based or functional assay. The source holds these as a separate data set.
For experiment [3], the target named is B1. As to the kind of experiment: SPR, 37 C (listed in PK study table). On the technique in general: Surface plasmon resonance follows binding to a sensor surface in real time, without labels.
For experiment [4], the target named is B1. As to the kind of experiment: SPR, captured mAb, 25 C. The method, then:
(§1) The equilibrium dissociation constants (KD values) for human and mouse PDGF-B binding to purified anti-PDGF-B monoclonal antibodies of this disclosure were determined using a real-time surface plasmon resonance (SPR) biosensor instrument, MASS-1. All binding studies were performed in 10 mM HEPES, 300 mM NaCl, 3 mM EDTA, 1 μg/mL Heparin, and 0.05% v/v Surfactant Tween-20, pH 7.4 (HBS-T) running buffer at 25° C. and 37° C. […] The HCA sensor surface was first derivatized by amine coupling the monoclonal mouse anti-human Fc antibody (GE, #BR100839) and anti-PDGF-B monoclonal antibodies were individually captured. […] Kinetic association (kₐ) and dissociation (kd) rate constants were determined by fitting the real-time binding sensorgrams to a 1:1 binding model with mass transport limitation using Scrubber 2.0c software. Binding dissociation equilibrium constant (KD) and dissociative half-life (t½) for different anti-PDGF-B monoclonal antibodies were calculated from the kinetic rate constants as: […]

Experiment [5] concerns the target B5. Briefly: cell-based or functional assay.
For experiment [6], the target named is B1. Briefly: cell-based or functional assay.
Experiment [7] concerns the target T2, human PDGF-AB (human, UniProt P04085 87-211). As to the kind of experiment: cell-based or functional assay.
Experiment [8] has as its target B5. As to the kind of experiment: SPR (Biacore T200 or MASS-2), mAb captured by anti-human Fc, 25 C. Here is the method:
(§2) All binding studies were performed in 10 mM HEPES, 300 mM NaCl, and 0.05% v/v Surfactant Tween-20, pH 7.4 (HBS-P) running buffer at 25° C.
(§3) The association rate (kₐ) and dissociation rate (kd) were determined by fitting the real-time binding sensorgrams to a 1:1 binding model with mass transport limitation using Scrubber 2.0c curve-fitting software. Binding dissociation equilibrium constant (KD) and dissociative half-life (t½) were calculated from the kinetic rates as: […]

A further experiment deals with T3, rat PDGF-BB (rat, UniProt Q05028 74-182).
T3 construct: also called rPDGF-BB
The experiment is described as above. The method, then: as §2, §3

The target of experiment [9] is B5. As to the kind of experiment: SPR (Bia-core), 37 C as headed.
The target of experiment [10] is B1. As to the kind of experiment: SPR (Bia-core), 37 C as headed.
Experiment [11] has as its target B1. As to the kind of experiment: SPR, captured mAb, 37 C. Here is the method:
as §1

In experiment [12] the target is B5. As to the kind of experiment: SPR (Bia-core), 37 C as headed; 37 C as headed.
In experiment [13] the target is T2, human PDGF-AB. Briefly: cell-based or functional assay. This is another data set of the same source.
For experiment [14], the target named is B4. As to the kind of experiment: SPR 25C, mAb captured on anti-hFc; analyte Monkey PDGF-BB Fc homodimer-mouse Fc (IgG1) tag (Sino Biological). Here is the method: The sample was injected at 25 uL/minute for 3 minutes and the dissociation was monitored for 10 minutes. The kinetics parameters were evaluated by fitting the real time data using 1:1 binding model with mass transport limitation.

Experiment [15] deals with T4, mouse PDGF-BB (mouse, UniProt P31240 82-190, limits assumed).
T4 construct: also called mPDGF-BB; mPDGF-B
Briefly: SPR MASS-1, captured mAb, 37C. The method, then: as §1

The target of experiment [16] is mfPDGFRβ-ecto/hPDGFRb-cyto (monkey (mf); human, UniProt P09619 554-1106). As to the kind of experiment: cell-based or functional assay.
Experiment [17] concerns the target B5. Briefly: SPR (Bia-core), 37 C as headed. The source holds these as a separate data set.
The target in experiment [18] is B1. Briefly: SPR (Bia-core), 37 C as headed. The source holds these as a separate data set.
The target of experiment [19] is T2, human PDGF-AB. As to the kind of experiment: cell-based or functional assay. This is another data set of the same source.
Experiment [20] concerns the target B5. Briefly: SPR (Bia-core), 37 C as headed; 37 C as headed. The source holds these as a separate data set.
The target in experiment [21] is B5. As to the kind of experiment: cell-based or functional assay. The source holds these as a separate data set.
In experiment [22] the target is Cynomolgus monkey PDGF-BB (cynomolgus monkey (Macaca fascicularis), UniProt A0A2K5UX81 82-190). Briefly: cell-based or functional assay.
Experiment [23] has as its target T5, human PDGF-AB (human, UniProt P04085 87-211).
T5 construct: also called hPDGF-AB; hPDGF AB
As to the kind of experiment: blocking ELISA: 100 pM Biot-PDGF-AB on 1 ug/ml hPDGFRb-mmH. A general note: ELISA stands for enzyme-linked immunosorbent assay.

T1 sequence (P09619 33-1106): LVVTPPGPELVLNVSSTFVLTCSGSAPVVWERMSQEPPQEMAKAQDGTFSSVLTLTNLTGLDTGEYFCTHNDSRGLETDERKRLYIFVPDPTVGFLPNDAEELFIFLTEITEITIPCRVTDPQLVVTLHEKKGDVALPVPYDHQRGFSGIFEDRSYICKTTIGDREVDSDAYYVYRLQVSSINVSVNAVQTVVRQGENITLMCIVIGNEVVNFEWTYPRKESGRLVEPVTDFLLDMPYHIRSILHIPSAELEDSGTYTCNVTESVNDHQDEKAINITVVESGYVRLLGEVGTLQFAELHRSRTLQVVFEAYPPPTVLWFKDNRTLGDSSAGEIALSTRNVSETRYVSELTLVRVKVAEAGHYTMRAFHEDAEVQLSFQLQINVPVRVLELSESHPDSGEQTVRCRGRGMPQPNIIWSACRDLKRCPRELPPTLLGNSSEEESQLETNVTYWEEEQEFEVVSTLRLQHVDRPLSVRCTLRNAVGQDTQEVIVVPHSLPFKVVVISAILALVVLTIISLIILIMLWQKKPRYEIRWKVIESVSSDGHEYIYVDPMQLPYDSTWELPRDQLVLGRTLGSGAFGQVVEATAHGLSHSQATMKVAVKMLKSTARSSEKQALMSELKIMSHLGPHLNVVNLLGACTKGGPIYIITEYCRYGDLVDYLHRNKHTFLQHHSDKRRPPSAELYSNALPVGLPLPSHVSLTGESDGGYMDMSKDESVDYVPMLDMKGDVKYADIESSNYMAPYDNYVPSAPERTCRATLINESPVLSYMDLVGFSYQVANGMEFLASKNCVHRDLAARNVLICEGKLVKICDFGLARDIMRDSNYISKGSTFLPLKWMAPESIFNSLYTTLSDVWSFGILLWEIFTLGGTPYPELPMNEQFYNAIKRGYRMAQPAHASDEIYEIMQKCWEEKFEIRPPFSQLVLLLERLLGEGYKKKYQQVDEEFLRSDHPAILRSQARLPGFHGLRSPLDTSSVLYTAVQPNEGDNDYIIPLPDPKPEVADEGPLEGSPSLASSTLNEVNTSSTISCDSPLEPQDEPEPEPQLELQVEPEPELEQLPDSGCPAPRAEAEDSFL
mfPDGFRβ-ecto/hPDGFRb-cyto, sequence (P09619 554-1106): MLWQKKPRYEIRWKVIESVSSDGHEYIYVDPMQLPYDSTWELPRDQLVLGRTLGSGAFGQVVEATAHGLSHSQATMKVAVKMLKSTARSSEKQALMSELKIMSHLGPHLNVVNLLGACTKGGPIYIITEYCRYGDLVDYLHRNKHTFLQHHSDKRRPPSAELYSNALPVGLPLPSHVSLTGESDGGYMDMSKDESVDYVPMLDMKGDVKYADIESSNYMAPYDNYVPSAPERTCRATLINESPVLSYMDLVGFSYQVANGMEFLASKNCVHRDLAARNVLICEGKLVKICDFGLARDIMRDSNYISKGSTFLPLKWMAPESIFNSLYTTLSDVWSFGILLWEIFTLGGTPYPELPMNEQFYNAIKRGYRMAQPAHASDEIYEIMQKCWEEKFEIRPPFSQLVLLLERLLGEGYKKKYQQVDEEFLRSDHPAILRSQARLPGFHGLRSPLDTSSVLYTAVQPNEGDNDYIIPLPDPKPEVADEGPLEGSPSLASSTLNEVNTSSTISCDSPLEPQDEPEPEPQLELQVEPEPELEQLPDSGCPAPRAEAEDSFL

Consider B1, for which the “EC50 of ligand, SRE-luciferase in HEK293/SRE-luc/hPDGFRβ cells” value in experiment [1] and in experiment [2] was 0.93 nM throughout.
As to B2, the Kd (usually the free concentration of one partner at which half of the binding sites on the other are occupied at equilibrium, for simple one-to-one binding) was 0.000954 nM in the experiment with mouse PDGF-BB [3]; at most 0.0023 nM in the experiment with mouse PDGF-BB [4]; 0.0161 nM in experiment [8]; 0.125 nM with rat PDGF-BB; 0.000954 nM with mouse PDGF-BB [10]; 0.000954 nM with mouse PDGF-BB [11]. In addition, the Kd in [12] amounted to 0.0161 nM. Also, the “IC50 (head printed IC51), SRE-luciferase, 500 pM mfPDGFBB” value in experiment [5] turned out to be 3.2e-10 M. The “IC50, SRE-luciferase, 600 pM mPDGFBB” value with mouse PDGF-BB [6] is 4.5e-10 M. Besides, the “A647 Intensity, internalization in NHLF, pre-blocking Ab: NA” value with human PDGF-AB [7] came to 1.9e+07. Further, the t½ (usually how long it takes for the measured level to halve) in experiment [8] came to 12.8 h; with rat PDGF-BB, 0.682 h. The molecule further yielded a t1/2 in experiment [9] of 12.8 h. For the same molecule, the “A647 Intensity, internalization in PASMC, pre-blocking Ab: NA” value in the experiment with human PDGF-AB [13] is 2.4e+07.
In the case of B3, the values for the Kd (in experiment [14]; with mouse PDGF-BB [15]) were 0.0268 nM and 0.000954 nM, respectively. The “t½” value in experiment [14] was 17.8 h.
Turning to B4, the “EC50, luciferase in HEK293/SRE-Luc/mfPDGFRβ-ecto/hPDGFRb-cyto cells” value in [16] came to 0.167 nM.
B5: the “EC50 of ligand, SRE-luciferase in HEK293/SRE-luc/hPDGFRβ cells” value in [1] and in [2] was 0.064 nM in each case.
Regarding B6, the equilibrium dissociation constant (Kd) with mouse PDGF-BB [3] came out at 0.0867 nM; in experiment [8], 0.00967 nM; with rat PDGF-BB, 0.103 nM; with mouse PDGF-BB [18] it was 0.0867 nM; in the experiment with mouse PDGF-BB [11], 0.0867 nM; in [20] it was 0.00967 nM. In addition, the “A647 Intensity, internalization in NHLF, pre-blocking Ab: NA” value in the experiment with human PDGF-AB [7] was found to be 679000. The t½ was determined as 4.62 h in [8] and 0.683 h with rat PDGF-BB. The t1/2 in experiment [17] was 4.62 h. Besides, in the experiment with human PDGF-AB [19], the “(%) Inhibition, calcium flux in HLF cells, 1 nM ligand, Full Time Course” value was found to be 63%. Moreover, the “A647 Intensity, internalization in PASMC, pre-blocking Ab: NA” value with human PDGF-AB [13] amounted to 772000. Moreover, the “IC50 (head printed IC51), SRE-luciferase, 500 pM mfPDGFBB” value in [21] was 8.9e-09 M.
Regarding B7, the Kd in experiment [14] was 0.0256 nM; with mouse PDGF-BB [15] it was 0.0867 nM. Moreover, the “t½” value in experiment [14] turned out to be 18.4 h. Further, in experiment [22], the “IC50, luciferase in HEK293/SRE-Luc/mfPDGFRβ-ecto/hPDGFRb-cyto cells” value was 0.781 nM. In addition, the half-maximal inhibitory concentration (IC50) (usually the concentration that gives 50% inhibition) in the experiment with human PDGF-AB [23] was 14 nM.

Values taken from US20220242943A1 (Regeneron, published 2022).
